Measured values taken from US20230083670A1 (IMMUNEONCO BIOPHARMACEUTICALS SHANGHAI, published 2023).

Assays:
CD47 on Jurkat cells [1] = target: T1, CD47 on Jurkat cells (UniProt Q08722 19-323, limits assumed); test: flow cytometry on Jurkat cells, FITC anti-human IgG-Fc
T1 construct: whole, on cells; also called CD47-expressing Raji cells
Description: (§1) Cells were washed with cold PBS twice, and then incubated with FITC-conjugated secondary antibody against human IgG-Fc (Cat #F9512, Sigma) for 45 min. Cells were washed twice and re-suspended in […] PBS. Then, the cells were subject to FACS analysis using a flow cytometer (Merck Millipore, Guava® easyCyte 5HT).

[2] = target: T2, PD-L1 on CHO cells expressing human PD-L1 (CHO-PDL1) (human, UniProt Q9NZQ7 19-290); test: flow cytometry on CHO-PD-L1 cells, FITC anti-human IgG-Fc
T2 construct: whole, on cells; Species is stated as human for the CHO-PDL1 cells; also called CHO-PD-L1 cells; Raji-PD-L1 cells
T2 sequence (Q9NZQ7 19-290): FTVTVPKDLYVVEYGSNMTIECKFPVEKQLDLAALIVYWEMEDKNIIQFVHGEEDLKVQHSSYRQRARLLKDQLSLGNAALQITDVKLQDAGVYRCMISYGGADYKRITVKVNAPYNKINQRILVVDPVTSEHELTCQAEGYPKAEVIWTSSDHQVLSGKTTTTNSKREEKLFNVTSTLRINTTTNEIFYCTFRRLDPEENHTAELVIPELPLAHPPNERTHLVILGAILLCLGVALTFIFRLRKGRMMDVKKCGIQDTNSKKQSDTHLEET
Description: as §1

CD47 on Jurkat cells [3] = target: T1, CD47 on Jurkat cells; test: flow cytometry competition; blocks FITC-SIRPα-Fc (80 nM) on PD-L1- CD47+ Raji cells
Description: The mixtures were added to a 96-well plate containing PD-L1⁻ or PD-L1⁺ CD47-expressing Raji cells, and the plate was incubated at 4° C. for 45 minutes.

[4] = target: T2, PD-L1 on CHO cells expressing human …; test: flow cytometry competition; blocks Biotin-hPD1-mFc (1 µg/ml) on CD47- PD-L1+ CHO cells
Description: Cells were incubated at 4° C. for 45 minutes, washed with PBS, and then further incubated at 4° C. for another 45 minutes with PE-conjugated mouse Anti-human CD279 (Cat #557946, BD BioScience).

Binder	EC50 (CD47 on Jurkat cells [1])	EC50 [2]	IC50 (CD47 on Jurkat cells [3])	IC50 [4]
IMM2521 (bispecific antibody, human IgG1, kappa, SIRPαD1 mutant linked through the linker to the N-terminus of each light chain of IMM2515; also called recombinant fusion protein IMM2521; PD-L1×CD47 bispecific) heavy: QVQLVQSGAEVKKPGASVKVSCKASGYTFTSNWMHWVRQAPGQGLEWMGMIHPNSGSSNYNEKFKSRVTMTRDTSTSTVYMELSSLRSEDTAVYYCARSYYGSSPYYFDYWGQGTLVTVSSASTKGPSVFPLAPSSKSTSGGTAALGCLVKDYFPEPVTVSWNSGALTSGVHTFPAVLQSSGLYSLSSVVTVPSSSLGTQTYICNVNHKPSNTKVDKRVEPKSCDKTHTCPPCPAPELLGGPSVFLFPPKPKDTLMISRTPEVTCVVVDVSHEDPEVKFNWYVDGVEVHNAKTKPREEQYNATYRVVSVLTVLHQDWLNGKEYKCKVSNKALPAPIAATISKAKGQPREPQVYTLPPSREEMTKNQVSLTCLVKGFYPSDIAVEWESNGQPENNYKTTPPVLDSDGSFFLYSKLTVDKSRWQQGNVFSCSVMHEALHNHYTQKSLSLSPGK light: not shown	0.7 nM	0.11 nM	140 nM	< 1 nM
IMM2515 (antibody, human IgG1, kappa, V domains shown, also called monoclonal anti-PD-L1 antibody; monospecific anti-PD-L1 antibody IMM2515) VH: QVQLVQSGAEVKKPGASVKVSCKASGYTFTSNWMHWVRQAPGQGLEWMGMIHPNSGSSNYNEKFKSRVTMTRDTSTSTVYMELSSLRSEDTAVYYCARSYYGSSPYYFDYWGQGTLVTVSS VL: DIQMTQSPSSLSASVGDRVTITCRASQDIINYLNWYQQKPGKAPKLLIYYTSRLHSGVPSRFSGSGSGTDFTFTISSLQPEDIATYYCQQGDTLPWTFGQGTKVEIKR	–	–	–	< 1 nM
